Results reported in article PMC3797442, “Analysis of the role of Arabidopsis class I TCP genes AtTCP7, AtTCP8, AtTCP22, and AtTCP23 in leaf development”.

How the values were obtained:
[1] = molecular target: AtTCP7 (Arabidopsis thaliana, UniProt Q9FMX2 1-250); test: EMSA; LightShift Chemiluminescent EMSA Kit (Pierce), manufacturer's instructions; buffer, salt, pH and temperature not stated; settings: protein: recombinant; tags: N-terminal GST (pDEST15); chain copies: 2; label: biotin (both strands); blunt
[2] = molecular target: AtTCP22;AtTCP23 (Arabidopsis thaliana;Arabidopsis …, UniProt Q9C7G4;Q9LQF0 1-375;1-341, |); test: EMSA; heterodimer; LightShift Chemiluminescent EMSA Kit (Pierce), manufacturer's instructions; buffer, salt, pH and temperature not stated; settings: protein: recombinant;recombinant; tags: N-terminal GST (pDEST15);N-terminal GST (pDEST15); copies: 1;1; label: biotin (both strands); blunt
[3] = molecular target: AtTCP7;AtTCP23 (Arabidopsis thaliana;Arabidopsis …, UniProt Q9FMX2;Q9LQF0 1-250;1-341, |); test: as above; settings: protein: recombinant;recombinant; tags: N-terminal GST (pDEST15);N-terminal GST (pDEST15); copies: 1;1; label: biotin (both strands); blunt
[4] = molecular target: AtTCP7;AtTCP22 (Arabidopsis thaliana;Arabidopsis …, UniProt Q9FMX2;Q9C7G4 1-250;1-375, |); test: as above; settings: protein: recombinant;recombinant; tags: N-terminal GST (pDEST15);N-terminal GST (pDEST15); copies: 1;1; label: biotin (both strands); blunt

Measured: binding result

AtTCP7, sequence (Q9FMX2 whole entry): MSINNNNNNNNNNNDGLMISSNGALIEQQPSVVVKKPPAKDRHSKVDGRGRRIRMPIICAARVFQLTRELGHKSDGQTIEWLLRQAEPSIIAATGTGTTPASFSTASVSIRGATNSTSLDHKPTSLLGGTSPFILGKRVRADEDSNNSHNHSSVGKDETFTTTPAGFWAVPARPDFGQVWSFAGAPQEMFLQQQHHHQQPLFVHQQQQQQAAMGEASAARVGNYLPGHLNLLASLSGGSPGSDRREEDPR
AtTCP7;AtTCP23, sequence (Q9FMX2 whole entry, chain 1 of 2): as the sequence (Q9FMX2 whole entry) above
AtTCP7;AtTCP23, sequence (Q9LQF0 whole entry, chain 2 of 2): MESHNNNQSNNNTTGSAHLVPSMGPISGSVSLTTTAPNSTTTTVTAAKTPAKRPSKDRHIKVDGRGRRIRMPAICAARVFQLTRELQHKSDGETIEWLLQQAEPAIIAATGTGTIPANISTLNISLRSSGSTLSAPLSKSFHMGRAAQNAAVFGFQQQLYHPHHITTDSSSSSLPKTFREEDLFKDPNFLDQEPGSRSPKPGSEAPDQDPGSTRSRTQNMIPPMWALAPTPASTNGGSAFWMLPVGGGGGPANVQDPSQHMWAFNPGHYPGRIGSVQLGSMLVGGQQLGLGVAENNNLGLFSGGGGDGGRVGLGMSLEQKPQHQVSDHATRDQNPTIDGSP
AtTCP7;AtTCP22, sequence (Q9FMX2 whole entry, chain 1 of 2): as the sequence (Q9FMX2 whole entry) above
AtTCP7;AtTCP22, sequence (Q9C7G4 whole entry, chain 2 of 2): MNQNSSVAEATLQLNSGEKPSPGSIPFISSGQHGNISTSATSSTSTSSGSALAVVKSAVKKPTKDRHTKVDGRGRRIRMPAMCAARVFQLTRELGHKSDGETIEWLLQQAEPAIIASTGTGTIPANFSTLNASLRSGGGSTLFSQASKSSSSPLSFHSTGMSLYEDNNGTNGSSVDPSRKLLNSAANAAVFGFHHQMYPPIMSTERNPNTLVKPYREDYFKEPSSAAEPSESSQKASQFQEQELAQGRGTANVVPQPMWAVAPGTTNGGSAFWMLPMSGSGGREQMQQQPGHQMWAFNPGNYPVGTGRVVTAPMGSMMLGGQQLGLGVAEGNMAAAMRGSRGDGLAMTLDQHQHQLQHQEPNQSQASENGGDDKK
AtTCP22;AtTCP23, sequence (Q9C7G4 whole entry, chain 1 of 2): as the sequence (Q9C7G4 whole entry, chain 2 of 2) above
AtTCP22;AtTCP23, sequence (Q9LQF0 whole entry, chain 2 of 2): as the sequence (Q9LQF0 whole entry, chain 2 of 2) above

B1: STM promoter K-box probe, 76 bp (dsDNA)
DNA 1: AACTATCACTATTTAGAATTTTCAATGTGGAAAAGGAAGCTGATTGTTGAAGCATAAATCCCGGGAGACCACTTTT
DNA 2: AAAAGTGGTCTCCCGGGATTTATGCTTCAACAATCAGCTTCCTTTTCCACATTGAAAATTCTAAATAGTGATAGTT
binds: all assays above
